Assay results taken from patent US20150125444A1 (AstraZeneca / MedImmune, published 2015).

T1: Human FcγRIIa extracellular domain (human, UniProt P12318 34-217)
T1 construct: extracellular domain
T1 sequence (looked up): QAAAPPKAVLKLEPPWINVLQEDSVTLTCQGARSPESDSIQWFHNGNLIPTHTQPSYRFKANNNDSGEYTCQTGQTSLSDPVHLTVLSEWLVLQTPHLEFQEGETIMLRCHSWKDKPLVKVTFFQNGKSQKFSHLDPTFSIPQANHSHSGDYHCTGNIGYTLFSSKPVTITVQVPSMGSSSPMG

T2: Human FcγRIIb extracellular domain (human, UniProt P31994 43-217)
T2 construct: extracellular domain
T2 sequence (looked up): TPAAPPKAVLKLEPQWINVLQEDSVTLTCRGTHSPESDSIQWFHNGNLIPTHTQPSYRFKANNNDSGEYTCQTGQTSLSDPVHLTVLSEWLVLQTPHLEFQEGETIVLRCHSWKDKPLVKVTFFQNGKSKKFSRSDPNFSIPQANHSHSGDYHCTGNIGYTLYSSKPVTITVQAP


Legend:
[1] = biological target: Human FcRn (extracellular domain) (human, UniProt P55899 24-297); assay: SPR (ProteOn XPR36), antibody immobilised, steady state, pH 6.0
Sequence of Human FcRn (extracellular domain) (P55899 24-297): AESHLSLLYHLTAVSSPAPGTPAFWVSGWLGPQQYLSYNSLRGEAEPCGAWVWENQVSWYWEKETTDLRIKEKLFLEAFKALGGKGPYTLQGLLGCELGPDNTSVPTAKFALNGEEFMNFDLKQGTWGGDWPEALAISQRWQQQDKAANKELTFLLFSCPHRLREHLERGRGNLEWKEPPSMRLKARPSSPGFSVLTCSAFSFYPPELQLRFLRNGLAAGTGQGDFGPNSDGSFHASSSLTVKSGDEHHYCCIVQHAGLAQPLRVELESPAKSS
Experimental: (§1) Experiments were performed using the ProteOn XPR36 surface plasmon resonance system (Bio Rad). Phosphate buffered saline with 0.005% Tween 20 (PBS/Tween), pH 7.4 was used as running buffer for most experiments with the exception of Human FcRn (extracellular domain) binding in which Phosphate buffered saline with 0.005% Tween 20 (PBS/Tween), pH 6.0 was used. All experiments were performed at 25° C. Antibodies were immobilized on a ProteOn™ GLC Sensor Chip (#176-5011) using EDAC (1-Ethyl-3-[3-dimethylaminopropyl]carbodiimide) and sulfo-NHS (N-hydroxysulfosuccinimide) to an R.U. (response unit) level of 4000-6000. C1q, FcγRI, FcγRIIa, FcγRIIb, FcγRIII(158V), FcγRIII(158F), and FcRn were then flowed over the IgG immobilized surface at various concentrations at a rate of 25 μl/minute for a long enough period of time to achieve steady state, or near steady state. Binding (if any could be determined) was quantified via steady state equilibrium binding analysis using the ProteOn software. Human FcγRI, FcγRIIa, FcγRIIb, FcγRIII(158V), FcγRIII(158F), and FcRn extracellular domains were generated via mammalian expression vectors in house. Human C1q was obtained from Quidel (CA).

[2] = biological target: T3, Human FcγRIIIa (158V) extracellular domain (human, UniProt P08637 17-208); assay: SPR (ProteOn XPR36), antibody immobilised, steady state, pH 7.4
T3 construct: extracellular domain; Position 158 is the usual allotype numbering (mature protein), not the precursor numbering of the database entry; also called FcγRIII(158V)
T3 sequence (P08637 17-208 F176V): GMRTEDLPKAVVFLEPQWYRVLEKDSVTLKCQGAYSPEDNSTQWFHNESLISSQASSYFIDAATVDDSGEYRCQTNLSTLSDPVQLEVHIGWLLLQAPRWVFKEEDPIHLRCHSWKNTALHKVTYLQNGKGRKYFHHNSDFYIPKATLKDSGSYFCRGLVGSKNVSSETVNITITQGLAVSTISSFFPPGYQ
Experimental: as §1

[3] = biological target: T4, Human FcγRIIIa (158F) extracellular domain (human, UniProt P08637 17-208); assay: as above
T4 construct: extracellular domain; also called FcγRIII(158F)
T4 sequence (P08637 17-208): as the sequence (P08637 17-208 F176V) above, with V160F counted along it
Experimental: as §1

[4] = biological target: T1, Human FcγRIIa extracellular domain; assay: as above
Experimental: as §1

[5] = biological target: T2, Human FcγRIIb extracellular domain; assay: as above
Experimental: as §1

[6] = biological target: T5, Human FcγRIa extracellular domain (human, UniProt P12314 16-292); assay: as above
T5 construct: extracellular domain
T5 sequence (P12314 16-292): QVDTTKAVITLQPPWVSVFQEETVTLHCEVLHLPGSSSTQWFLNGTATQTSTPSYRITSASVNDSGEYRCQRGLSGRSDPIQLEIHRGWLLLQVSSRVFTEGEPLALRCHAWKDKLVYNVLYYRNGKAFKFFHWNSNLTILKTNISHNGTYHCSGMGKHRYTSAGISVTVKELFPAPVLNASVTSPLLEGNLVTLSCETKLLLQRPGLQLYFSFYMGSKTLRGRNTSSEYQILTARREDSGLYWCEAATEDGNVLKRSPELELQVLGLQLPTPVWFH
Experimental: as §1

Human C1q = biological target: T6, Human C1q (human, UniProt P02745 23-245; P02746 28-253; P02747 29-245); assay: as above
T6 construct: Bought complement protein; In the CDC assay C1q came with human serum
T6 sequence (P02745 23-245 limits assumed, chain 1 of 3): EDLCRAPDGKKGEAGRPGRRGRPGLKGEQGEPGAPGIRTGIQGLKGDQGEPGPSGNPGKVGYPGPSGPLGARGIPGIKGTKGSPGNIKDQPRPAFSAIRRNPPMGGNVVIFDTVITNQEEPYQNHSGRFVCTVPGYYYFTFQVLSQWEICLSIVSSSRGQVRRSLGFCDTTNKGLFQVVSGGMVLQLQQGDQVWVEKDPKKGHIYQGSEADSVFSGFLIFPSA
T6 sequence (P02746 28-253 limits assumed, chain 2 of 3): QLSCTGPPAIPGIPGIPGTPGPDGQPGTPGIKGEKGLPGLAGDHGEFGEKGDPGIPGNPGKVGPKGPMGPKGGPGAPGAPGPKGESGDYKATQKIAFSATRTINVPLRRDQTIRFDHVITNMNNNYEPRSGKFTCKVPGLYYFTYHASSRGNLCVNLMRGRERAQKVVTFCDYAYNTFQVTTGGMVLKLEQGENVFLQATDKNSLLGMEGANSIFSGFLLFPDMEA
T6 sequence (P02747 29-245 limits assumed, chain 3 of 3): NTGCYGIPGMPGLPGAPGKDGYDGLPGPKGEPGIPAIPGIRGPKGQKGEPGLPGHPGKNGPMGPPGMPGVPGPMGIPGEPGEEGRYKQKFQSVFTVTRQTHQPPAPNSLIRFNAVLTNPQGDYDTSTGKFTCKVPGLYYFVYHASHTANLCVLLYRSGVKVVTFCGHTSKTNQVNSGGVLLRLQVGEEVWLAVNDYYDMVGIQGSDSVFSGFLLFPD
Experimental: as §1

Row | Binder | Kd [1] [nM] | Kd [2] [nM] | Kd [3] [nM] | Kd [4] [nM] | Kd [5] [nM] | Kd [6] [nM] | Kd (Human C1q) [nM] | binding result [2] | binding result [3] | binding result [4] | binding result [5] | binding result [6] | binding result (Human C1q)
1 | Ab4 (anti-C5a antibody 1B8) with wild-type IgG1 Fc domain (antibody, Full human IgG1 lambda antibody; also called Ab4 WT; WT) heavy: not shown light: QSALTQPPSASGTPGQRVTISCSGTNSNIGSNYVFWYQQLPGTAPKLLIFESNRRPSGVPDRFSGSKSDTSASLAISGLRSEDEADYYCATWDDTLIAPVFGSGTKVTVLGQPKANPTVTLFPPSSEELQANKATLVCLISDFYPGAVTVAWKADSSPVKAGVETTTPSKQSNNKYAASSYLSLTPEQWKSHRSYSCQVTHEGSTVEKTVAPAEC | 1070 | 380 | 1600 | 1000 | 2500 | 31 | 250 |  |  |  |  |  | 
2 | Ab4 (anti-C5a antibody 1B8) with FQG-YTE variant IgG1 Fc domain (antibody, Full IgG1; also called Ab4 FQG-YTE) heavy: EVQLLESGGGLVQPGGSLRLSCAASGFTFSSYVMNWVRQAPGKGLEWVSSISPSGGRTWYADSVKGRFTISRDNSKNTLYLQMNSLRAEDTAVYYCARSDGSAAGFLGYWGQGTLVTVSSASTKGPSVFPLAPSSKSTSGGTAALGCLVKDYFPEPVTVSWNSGALTSGVHTFPAVLQSSGLYSLSSVVTVPSSSLGTQTYICNVNHKPSNTKVDKRVEPKSCDKTHTCPPCPAPEFQGGPSVFLFPPKPKDTLYITREPEVTCVVVDVSHEDPEVKFNWYVDGVEVHNAKTKPREEQYNSTYRVVSVLTVLHQDWLNGKEYKCKVSNKALPAGIEKTISKAKGQPREPQVYTLPPSREEMTKNQVSLTCLVKGFYPSDIAVEWESNGQPENNYKTTPPVLDSDGSFFLYSKLTVDKSRWQQGNVFSCSVMHEALHNHYTQKSLSLSPGK light: QSALTQPPSASGTPGQRVTISCSGTNSNIGSNYVFWYQQLPGTAPKLLIFESNRRPSGVPDRFSGSKSDTSASLAISGLRSEDEADYYCATWDDTLIAPVFGSGTKVTVLGQPKANPTVTLFPPSSEELQANKATLVCLISDFYPGAVTVAWKADSSPVKAGVETTTPSKQSNNKYAASSYLSLTPEQWKSHRSYSCQVTHEGSTVEKTVAPAEC | 350 |  |  |  |  |  |  | no binding | no binding | no binding | no binding | no binding | no binding
3 | Ab4 (anti-C5a antibody 1B8) with YTE variant IgG1 Fc domain (antibody, Full IgG1; also called Ab4 YTE) heavy: EVQLLESGGGLVQPGGSLRLSCAASGFTFSSYVMNWVRQAPGKGLEWVSSISPSGGRTWYADSVKGRFTISRDNSKNTLYLQMNSLRAEDTAVYYCARSDGSAAGFLGYWGQGTLVTVSSASTKGPSVFPLAPSSKSTSGGTAALGCLVKDYFPEPVTVSWNSGALTSGVHTFPAVLQSSGLYSLSSVVTVPSSSLGTQTYICNVNHKPSNTKVDKRVEPKSCDKTHTCPPCPAPELLGGPSVFLFPPKPKDTLYITREPEVTCVVVDVSHEDPEVKFNWYVDGVEVHNAKTKPREEQYNSTYRVVSVLTVLHQDWLNGKEYKCKVSNKALPAPIEKTISKAKGQPREPQVYTLPPSREEMTKNQVSLTCLVKGFYPSDIAVEWESNGQPENNYKTTPPVLDSDGSFFLYSKLTVDKSRWQQGNVFSCSVMHEALHNHYTQKSLSLSPGK light: QSALTQPPSASGTPGQRVTISCSGTNSNIGSNYVFWYQQLPGTAPKLLIFESNRRPSGVPDRFSGSKSDTSASLAISGLRSEDEADYYCATWDDTLIAPVFGSGTKVTVLGQPKANPTVTLFPPSSEELQANKATLVCLISDFYPGAVTVAWKADSSPVKAGVETTTPSKQSNNKYAASSYLSLTPEQWKSHRSYSCQVTHEGSTVEKTVAPAEC | 270 | 820 | 2800 | 1900 | 3600 | 43 | 400 |  |  |  |  |  | 
4 | Ab4 (anti-C5a antibody 1B8) with FQQ-YTE variant IgG1 Fc domain (antibody, Full IgG1; also called Ab4 FQQ-YTE) heavy: EVQLLESGGGLVQPGGSLRLSCAASGFTFSSYVMNWVRQAPGKGLEWVSSISPSGGRTWYADSVKGRFTISRDNSKNTLYLQMNSLRAEDTAVYYCARSDGSAAGFLGYWGQGTLVTVSSASTKGPSVFPLAPSSKSTSGGTAALGCLVKDYFPEPVTVSWNSGALTSGVHTFPAVLQSSGLYSLSSVVTVPSSSLGTQTYICNVNHKPSNTKVDKRVEPKSCDKTHTCPPCPAPEFQGGPSVFLFPPKPKDTLYITREPEVTCVVVDVSHEDPEVKFNWYVDGVEVHNAKTKPREEQYNSTYRVVSVLTVLHQDWLNGKEYKCQVSNKALPAPIEKTISKAKGQPREPQVYTLPPSREEMTKNQVSLTCLVKGFYPSDIAVEWESNGQPENNYKTTPPVLDSDGSFFLYSKLTVDKSRWQQGNVFSCSVMHEALHNHYTQKSLSLSPGK light: QSALTQPPSASGTPGQRVTISCSGTNSNIGSNYVFWYQQLPGTAPKLLIFESNRRPSGVPDRFSGSKSDTSASLAISGLRSEDEADYYCATWDDTLIAPVFGSGTKVTVLGQPKANPTVTLFPPSSEELQANKATLVCLISDFYPGAVTVAWKADSSPVKAGVETTTPSKQSNNKYAASSYLSLTPEQWKSHRSYSCQVTHEGSTVEKTVAPAEC | 290 |  |  |  |  |  |  | no binding | no binding | no binding | no binding | no binding | no binding
